{"source": "paper PMC6648666", "binders": {"B1": {"name": "AGGGU (ssRNA)", "RNA": "AGGGU"}, "B2": {"name": "AGGGA*U spin-labeled (ssRNA)", "RNA": "AGGGAU", "modifications": "phosphorothioate between A5 and U6"}}, "key": {"HqRRM2 (hnRNP H qRRM2)": {"target": "T1, HqRRM2 (hnRNP H qRRM2) (human, UniProt P31943 94-194)", "T1 sequence": "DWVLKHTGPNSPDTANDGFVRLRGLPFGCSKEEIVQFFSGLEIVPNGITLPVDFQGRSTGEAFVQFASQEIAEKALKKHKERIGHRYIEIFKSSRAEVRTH", "experiment": "ITC"}, "HqRRM1 (hnRNP H qRRM1)": {"target": "T2, HqRRM1 (hnRNP H qRRM1) (human, UniProt P31943 10-111)", "T2 sequence": "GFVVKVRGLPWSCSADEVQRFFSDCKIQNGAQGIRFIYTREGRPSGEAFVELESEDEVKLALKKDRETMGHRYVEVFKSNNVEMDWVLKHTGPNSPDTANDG", "experiment": "ITC"}, "[1]": {"target": "T3, HqRRM1,2 (hnRNP H tandem qRRMs) (human, UniProt P31943 10-194)", "T3 sequence": "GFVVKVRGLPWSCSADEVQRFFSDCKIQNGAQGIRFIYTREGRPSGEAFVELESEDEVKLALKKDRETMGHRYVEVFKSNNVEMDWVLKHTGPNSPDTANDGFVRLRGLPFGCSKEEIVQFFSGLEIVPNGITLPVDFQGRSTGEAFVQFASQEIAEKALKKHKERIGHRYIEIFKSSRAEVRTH", "experiment": "ITC"}, "HqRRM1,2 BTFA-labeled": {"target": "T4, HqRRM1,2 BTFA-labeled (human, UniProt P31943 10-194)", "T4 sequence": "T3 sequence", "experiment": "19F NMR PRE"}}, "data": [{"binder": "B1", "values": [{"measurement": "Kd", "setting": "HqRRM2 (hnRNP H qRRM2)", "value": "2200 ± 800", "unit": "nM"}, {"measurement": "Kd", "setting": "HqRRM1 (hnRNP H qRRM1)", "value": "3200 ± 100", "unit": "nM"}, {"measurement": "Kd", "setting": "[1]", "value": "800 ± 100", "unit": "nM"}]}, {"binder": "B2", "values": [{"measurement": "binding result", "setting": "HqRRM1,2 BTFA-labeled", "value": "binds"}]}]}
